In experiment [1] the target is 7E11-C5 monoclonal antibody. Nature of the experiment: competitive ELISA, peptide 1.75-1130 nM pre-incubated with 7E11-C5 at 30 ng/ml (0.2 nM), LNCaP extract on plate. In general terms: An ELISA detects its analyte on a solid surface through an enzyme-linked reagent.
The target of experiment [2] is 7E11-C5 monoclonal antibody. Nature of the experiment: competitive ELISA, LNCaP extract on plate.

No end group written: not given here.

The term IC50 denotes the concentration that inhibits the measured activity by half. Regarding LYANPGMYSRLHSPA-NH2 [peptide SEQ ID NO 31 (amide form)], the IC50 in experiment [1] was found to be 160 nM. Also, the molar ratio of peptide to monovalent binding site on the antibody at the IC50 in experiment [2] worked out at 400.

The values above are taken from patent US5747334.
